B1: murine anti-human AGR2 protein monoclonal antibody 18A4 (antibody, V domains shown)
VH: EVQLQQFGAELVKPGASVKISCKASAYTFTDYNMDWVKQSHGKSLEWIGDINPNYDTTSYNQKFKGKATLTVDKSSSTAYMELRSLTSEDTAVYYCARSMMGYGSPMDYWGQGTSVTVSS
VL: DIVLTQSPASLTVSLGQRATISCRASKSVSTSGYSYMHWYQRKPGQPPKLLIYLASNLESGVPARFSGSGSGTDFTLNIHPVEGEDAATYYCQHIRELPRTFGGGTKLEIK
notes: also called murine 18A4; the monoclonal antibody
B2: humanized antibody 18A4Hu1 (antibody, V domains shown)
VH: QVQLVQSGAEVKKPGASVKVSCKASGYTFTDYNMDWVRQAPGQGLEWIGDINPNYDTTSYNQKFKGKATLTVDKSTSTAYMELSSLRSEDTAVYYCARSMMGYGSPMDYWGQGTLVTVSS
VL: EIVLTQSPATLSLSPGERATLSCRASKSVSTSGYSYMHWYQQKPGQAPRLLIYLASNLESGIPARFSGSGSGTDFTLTISRLEPEDFAVYYCQHIRELPRTFGGGTKLEIK

How the values were obtained:
[1] = biological target: T1, AGR2 deletion mutant lacking the epitope … (UniProt O95994 21-175); assay: western blot
T1 construct: Made from the pcDNA3-AGR2-His eukaryotic expression plasmid by deletion mutagenesis; also called the mutated AGR2 protein; not shown: His tag of the pcDNA3-AGR2-His plasmid
T1 sequence (looked up): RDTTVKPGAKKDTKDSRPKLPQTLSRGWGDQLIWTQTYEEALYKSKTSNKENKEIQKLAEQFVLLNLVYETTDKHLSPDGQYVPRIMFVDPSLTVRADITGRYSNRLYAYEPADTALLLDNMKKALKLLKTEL
Experimental: The amino sequence of the monoclonal antibody corresponding to the epitopes of the antigen AGR2 was determined (see FIG. 23). The procedure was as followed: RNA was extracted from MCF cells. mRNA of AGR2 was obtained by PCR and reverse transcribed to obtain cDNA. The pcDNA3-AGR2-His eukaryotic expression plasmid was constructed and AGR2 was subjected to mutation by deletion. The upstream primer for the mutation was 5′-[…]-3′, and the downstream primer was 5′-[…]-3′. Such a mutation led to the deletion of the epitope […]. […] Then AGR2 was subjected to point mutation. The upstream primer for the mutation was 5′-[…]-3′, and the downstream primer was 5′-[…]-3′, wherein the “C” in the PDI active site “CXXS” was mutate to “S”. […] It was determined that the monoclonal antibody specifically bound to the epitope “[…]”, and may inhibit the PDI activity.

[2] = biological target: T2, human anterior gradient protein 2 (AGR2) (human, UniProt O95994 21-175); assay: competitive ELISA
T2 chain: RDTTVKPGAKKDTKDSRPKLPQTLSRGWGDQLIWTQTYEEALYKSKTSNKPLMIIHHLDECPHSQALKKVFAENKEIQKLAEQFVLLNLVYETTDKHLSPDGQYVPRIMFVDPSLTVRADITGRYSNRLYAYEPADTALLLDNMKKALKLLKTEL

[3] = biological target: T3, human anterior gradient protein 2 (AGR2) (human, UniProt O95994 21-175, limits assumed); assay: competitive ELISA, AGR2 coated, antibody pre-incubated with soluble antigen
T3 construct: also called hAG-2; antigen AGR2
T3 sequence (looked up): T2 chain
Experimental: The generated humanized antibody 18A4Hu1 was subjected to an affinity analysis and compared with the murine 18A4 antibody. Specifically, 3 ng/μl antigen AGR2 was used for coating the 96 well ELISA plates at 100 μl per well and blocked with blocking solution. Antibodies at 0.1 ng/μl were mixed 1:1 with antigens of different concentrations and incubated at 37° C. overnight, wherein the antigen concentration was serially diluted from 1000 nM. 100 μl incubated mixture was separately added into different ELISA plates and incubated at 37° C. for 1 hour. After washing the ELISA plates, the HRP-labeled secondary antibodies against human or mouse were added and incubated at 37° C. for 1 hour. Color development solutions A and B were added, each at 80 μl, and color was allowed to develop at 37° C. for 30 min. The reaction was stopped by adding 50 μl stopping solution and absorbance was determined at OD 450. Affinity plate was depicted and the affinities of the antibodies were calculated.

Binder	binding result [1]	Kd [2] [nM]	binding result [3]
B1	no binding	1.7	
B2		3.02	binds
